Results reported in patent US7963935B2, “Microprojection array having a beneficial agent containing coating” (Alza Corporation, priority 2001, dated 2011).
Counter-ions that a name gives are not always drawn.

Tests used:
[1] = Dry film/coating on titanium foil: inspection and redissolution/rehydration in water; assay type: physicochemical
Experimental: In order to test the ability of aqueous albumin solutions to form solid coatings on titanium microprojections, a coated microprojection array was prepared in the following manner. […] To aliquots of these solutions, fluorescein, a marker added for subsequent visualization of the dried coating, was added at a final concentration of 1 millimolar. A 1-microliter drop of this solution was spread on titanium foil having an area of about one centimeter square. The solution was allowed to dry at room temperature for about 1 hour.
A coated microprojection array was prepared in the following manner. […] To this suspension, fluorescein, a marker added for subsequent visualization, was added at a final concentration of 1 millimolar. A 1 microliter drop of this suspension was spread on titanium foil having an area of 1 square centimeter and allowed to dry at room temperature for about an hour.
To 50 microliters of this solution, 50 microliters of a 40 percent by weight aqueous solution of lidocaine HCl was added. A control solution containing no albumin was also prepared. 1-microliter drops of these solutions were spread on titanium foil having an area of approximately 1 square centimeter. The solutions were allowed to air dry at room temperature for about 1 hour.

[2] = hGH delivery studies with tip-coated microprojection arrays; plasma hGH by ELISA, compared with subcutaneous injection; assay type: in vivo, hairless guinea pigs; details: for Cmax / tmax: plasma hGH
Experimental: An aqueous solution containing 20 wt % human growth hormone (20 wt % hGH), and 20 wt % sucrose was prepared. […] The tips of the microprojections were coated with this solution by passing the arrays over a rotating drum carrying the hGH/sucrose solution using the method and apparatus disclosed in U.S. Patent Application Ser. No. 60/276,762 filed Mar. 16, 2001. Four successive coatings were performed on each microprojection array at 4° C. The amount of protein coated on the arrays was evaluated by total protein assay. An average of 9.5±0.9 μg of hGH was coated per array. […] On the microprojection itself, the coating was found unevenly distributed. Most of the solid coating appeared to be located in caps centered on the geometric center of the faces of the coated area of the microprojections. […] The maximum measured thickness of the coating was about 4 μm while the average calculated thickness over the entire coated area was only about 1.7 μm. Overall, the coating presented good aerodynamics and good adhesion, consistent with minimum effect on penetration of the microprojections into the skin and minimal removal of the drug from the microprojection during penetration.
Some of the hGH tip-coated arrays were subsequently used for drug delivery studies in hairless guinea pigs. The application of the coated microprojection arrays was done using an impact applicator (total energy=0.4 Joules, delivered in less than 10 milliseconds) using a spring-driven impact applicator or the type disclosed in U.S. Patent Application Ser. No. 60/240,307 filed Oct. 13, 2000. The arrays were left on the skin after application for 5 seconds, 5 minutes, or 1 hour, in groups of three animals. Blood was collected at time intervals for plasma hGH determination by ELISA. […] On average, 5 μg of hGH was delivered in each animal, which accounts for approximately 50% of the coated dose. […] Finally, the 5 minute wearing time group had the smallest CV (30%), which is even smaller than that observed following subcutaneous injection (50%).

## CCN(CC)CC(=O)Nc1c(C)cccc1C [lidocaine HCl]
[1]; control solution without albumin
  nature of dried film (hygroscopicity, suitability for storage): very hygroscopic film unsuitable for subsequent storage

## Cyclosporin A [CSA]
[1]; CSA suspension in 20 wt% human albumin, dried on titanium foil, particles 1 to 25 micrometers
  release of drug particles from dry albumin coating following rehydration: freed readily following rehydration

## human growth hormone [hGH]
[2]; arrays left on skin 5 seconds, 5 minutes or 1 hour
  hGH delivery versus wearing time: the same at all wearing times
[2]; hGH/sucrose tip-coated microprojection array, impact applicator, hairless guinea pigs, all wearing times
  amount of hGH delivered in each animal (average): 5 µg
[2]; microprojection administration
  Cmax: 13 ng/mL
  tmax: 30 min
[2]; microprojection array, hairless guinea pigs
  hGH delivered as fraction of the coated dose: approximately 50%
[2]; microprojection array, assuming bioavailability similar to subcutaneous (65%)
  fraction of the coated dose delivered into the skin: about 80%
[2]; subcutaneous administration
  bioavailability: 65%
[2]; subcutaneous injection
  Cmax: 5 ng/mL
  tmax: 60 min
